In the assay the target is T1, ANK1-F2 (ankyrin 1 membrane-binding domain fragment 2, aa 250–568) (human, UniProt P16157 250-568).
T1 construct: amplified from cDNA of human reticulocyte mRNA; also called HA-ANK1-F2; HA-tagged ANK1-F2; source: E. coli BL21 (DE3) pLysS, pET30a, purified; not shown: HA, C-terminal, kept
T1 sequence (looked up): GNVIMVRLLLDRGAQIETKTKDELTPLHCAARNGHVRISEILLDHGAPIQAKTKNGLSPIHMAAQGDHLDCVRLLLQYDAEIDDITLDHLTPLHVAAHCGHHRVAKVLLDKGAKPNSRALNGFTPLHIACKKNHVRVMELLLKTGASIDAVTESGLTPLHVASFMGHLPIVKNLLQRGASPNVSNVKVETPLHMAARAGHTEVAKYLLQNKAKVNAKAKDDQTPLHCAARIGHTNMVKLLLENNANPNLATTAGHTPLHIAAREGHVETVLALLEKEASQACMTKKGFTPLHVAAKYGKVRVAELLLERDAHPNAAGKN
Put plainly: SPR; BIAcore S200, 25 °C, HBS-EP pH 7.4; ANK1-F2 immobilised on a CM5 chip, PfGAMA-Tr3 or PvGAMA-F2 injected at varying concentrations; response at equilibrium against concentration, 1:1 Langmuir model. The following applies: both partners purified. A general note: Surface plasmon resonance follows binding to a sensor surface in real time, without labels.

B1: recombinant PvGAMA-F2 (P. vivax glycosylphosphatidylinositol-anchored micronemal antigen, aa 345–589) (domain or fragment)
chain: DVSVDEKGDRATTAGGNQSASVAAAAPKDAGPTVAAPNTAATLKTAASPNAAATNTAAPPNMGATSPLSNPLYGTSSLQPKDVAVLVRDLLKNTNIIKFENNEPTSQMDDEEIKKLIESSFFDLSDNTMLMRLLIKPQAAILLIIESFIMMTPSPTRDAKTYCKKALVNGQLIETSDLNAATEEDDLINEFSSRYNLFYERLKLEELREIEQNRKALKNSKGTLSVLEVANSQNAPDGKGVNGSG
notes: PvGAMA, P. vivax, PVX_088910, 771-amino acid protein; Cloned into BamH1/Xho1 sites of pET30a; further vector-encoded residues may be present; also called His-PvGAMA-F2; source: E. coli BL21 (DE3) pLysS, pET30a, purified (Ni-NTA); not shown: Flag, C-terminal, kept
The Kd is a measure of binding affinity in units of concentration. A lower Kd goes with tighter binding. For the molecule B1, the Kd worked out at 13.8 µM.

B2: recombinant PfGAMA-Tr3 (P. falciparum glycosylphosphatidylinositol-anchored micronemal antigen, aa 500–715) (domain or fragment)
chain: KDIIKLLKDLIKYLHIVKFENNEPTTNIDEEGIRKLLENSFFDLNDDILIVRLLLKPQTVILTVIQSFMLMTPSPSRDAKAYCKKALINDQLVPTNDTNILSEENELVNNFSTKYVLIYEKMKLQELKEMEESKLKMKYSKTNLSALQVTNPQNNKDKNDASNKNNNPNNSSTPLIAVVTDLSGEKTEDIINNNVDIATLSVGVQNTFQGPNAKAG
notes: PfGAMA, P. falciparum, PF3D7_0828800, 738-amino acid protein; Cloned into BamH1/Xho1 sites of pET30a; further vector-encoded residues may be present; also called His-PfGAMA-Tr3; Flag-PfGAMA-Tr3; source: E. coli BL21 (DE3) pLysS, pET30a, purified (Ni-NTA); not shown: Flag, C-terminal, kept
As for B2, the Kd turned out to be 0.166 µM.

Values taken from PMC8931436, “Glycosylphosphatidylinositol-anchored micronemal antigen (GAMA) interacts with the band 3 receptor to promote erythrocyte invasion by malaria parasites” (The Journal of Biological Chemistry, 2022).
